Data published in publication PMC3319807 (Cancer Research, 2012).

Target: His-tagged full-length p53 (UniProt P04637 1-393)
Assay: co-IP

Sequence of His-tagged full-length p53 (P04637 whole entry): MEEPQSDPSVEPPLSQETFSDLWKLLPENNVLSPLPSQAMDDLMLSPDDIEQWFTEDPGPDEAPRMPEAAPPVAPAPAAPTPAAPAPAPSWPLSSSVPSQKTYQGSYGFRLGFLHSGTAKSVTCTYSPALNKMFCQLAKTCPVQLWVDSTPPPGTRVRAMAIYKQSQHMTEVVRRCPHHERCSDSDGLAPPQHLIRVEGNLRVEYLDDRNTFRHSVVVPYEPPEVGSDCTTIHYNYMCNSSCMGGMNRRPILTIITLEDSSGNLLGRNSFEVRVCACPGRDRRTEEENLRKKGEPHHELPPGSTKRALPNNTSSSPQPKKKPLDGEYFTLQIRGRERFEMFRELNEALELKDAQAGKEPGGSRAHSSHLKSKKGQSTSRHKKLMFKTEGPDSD

B1: His-tagged minimal-binding region of Dmp1 for p53 (M14: amino acids 87–224) (domain or fragment, UniProt Q8CE22 87-224, looked up)
chain: VTMTATTEVADDELSEGTVTQIQILQNDQLDEISPLGTEEVSAVSQAWFTTKEDKDSLTNKGHKWKQGMWSKEEIDILMNNIERYLKARGIKDATEIIFEMSKDERKDFYRTIAWGLNRPLFAVYRRVLRMYDDRNHV
B1: binds.
